B2: RbK810me1 peptide (biotin-GNIYISPLK[me]SPYKISEG) (peptide)
peptide: Biotin-GNIYISPLK(Me)SPYKISEG
notes: retinoblastoma protein (pRb), stretch around K810, K810 mono-methylated; also called mono-methylated K810 pRb peptide; biotinylated RbK810me1; source: synthetic peptide

In test [1] the target is B2. Briefly: BLI; peptides immobilised; His-PHF20L1 tudor 1 or full-length His-PHF20L1 in seven 2.5-fold dilutions from 200 μM; 250 s association, 250 s dissociation. The conditions noted are these: both partners purified.
The target in test [2] is T1, His-PHF20L1 tudor 1 (UniProt A8MW92 11-71).
T1 construct: PHD-finger protein 20-like 1 (PHF20L1), tudor 1 domain; the GST construct of tudor 1 is 1-74; also called pET28a-PHF20L1 tudor 1; source: E. coli BL21 (DE3), purified
T1 sequence (looked up): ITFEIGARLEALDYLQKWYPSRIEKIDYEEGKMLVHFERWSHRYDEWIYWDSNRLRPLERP
Described as above. The conditions noted are these: both partners purified.

Where no end group is shown, it is not given here. The star is where a group is joined. Biotin = O=C1N[C@H]2[C@H](CS[C@H]2CCCCC(=O)*)N1

B1: His-PHF20L1 (full length) (natural protein)
chain: MSKKPPNRPGITFEIGARLEALDYLQKWYPSRIEKIDYEEGKMLVHFERWSHRYDEWIYWDSNRLRPLERPALRKEGLKDEEDFFDFKAGEEVLARWTDCRYYPAKIEAINKEGTFTVQFYDGVIRCLKRMHIKAMPEDAKGQFLFQVKSQHPLSWCCPIDPAGSCNQSMGSEDWIALVKAAAAAAAKNKTGSKPRTSANSNKDKDKDERKWFKVPSKKEETSTCIATPDVEKKEDLPTSSETFVGLHVENVPKMVFPQPESTLSNKRKNNQGNSFQAKRARLNKITGLLASKAVGVDGAEKKEDYNETAPMLEQV
Take B1: in test [1], the dissociation constant Kd was 34 µM.
In test [2], B2 showed a Kd of 28 µM.

These data come from paper PMC5686351, “Tudor-domain protein PHF20L1 reads lysine methylated retinoblastoma tumour suppressor protein” (Cell Death and Differentiation, 2017).
